Assay results published in IntAct's records for PubMed 21187394.

B1: Protein BRASSINOSTEROID … 1 (Arabidopsis thaliana (Mouse-ear cress)), O22476 (parent)
chain: MKTFSSFFLSVTTLFFFSFFSLSFQASPSQSLYREIHQLISFKDVLPDKNLLPDWSSNKNPCTFDGVTCRDDKVTSIDLSSKPLNVGFSAVSSSLLSLTGLESLFLSNSHINGSVSGFKCSASLTSLDLSRNSLSGPVTTLTSLGSCSGLKFLNVSSNTLDFPGKVSGGLKLNSLEVLDLSANSISGANVVGWVLSDGCGELKHLAISGNKISGDVDVSRCVNLEFLDVSSNNFSTGIPFLGDCSALQHLDISGNKLSGDFSRAISTCTELKLLNISSNQFVGPIPPLPLKSLQYLSLAENKFTGEIPDFLSGACDTLTGLDLSGNHFYGAVPPFFGSCSLLESLALSSNNFSGELPMDTLLKMRGLKVLDLSFNEFSGELPESLTNLSASLLTLDLSSNNFSGPILPNLCQNPKNTLQELYLQNNGFTGKIPPTLSNCSELVSLHLSFNYLSGTIPSSLGSLSKLRDLKLWLNMLEGEIPQELMYVKTLETLILDFNDLTGEIPSGLSNCTNLNWISLSNNRLTGEIPKWIGRLENLAILKLSNNSFSGNIPAELGDCRSLIWLDLNTNLFNGTIPAAMFKQSGKIAANFIAGKRYVYIKNDGMKKECHGAGNLLEFQGIRSEQLNRLSTRNPCNITSRVYGGHTSPTFDNNGSMMFLDMSYNMLSGYIPKEIGSMPYLFILNLGHNDISGSIPDEVGDLRGLNILDLSSNKLDGRIPQAMSALTMLTEIDLSNNNLSGPIPEMGQFETFPPAKFLNNPGLCGYPLPRCDPSNADGYAHHQRSHGRRPASLAGSVAMGLLFSFVCIFGLILVGREMRKRRRKKEAELEMYAEGHGNSGDRTANNTNWKLTGVKEALSINLAAFEKPLRKLTFADLLQATNGFHNDSLIGSGGFGDVYKAILKDGSAVAIKKLIHVSGQGDREFMAEMETIGKIKHRNLVPLLGYCKVGDERLLVYEFMKYGSLEDVLHDPKKAGVKLNWSTRRKIAIGSARGLAFLHHNCSPHIIHRDMKSSNVLLDENLEARVSDFGMARLMSAMDTHLSVSTLAGTPGYVPPEYYQSFRCSTKGDVYSYGVVLLELLTGKRPTDSPDFGDNNLVGWVKQHAKLRISDVFDPELMKEDPALEIELLQHLKVAVACLDDRAWRRPTMVQVMAMFKEIQAGSGIDSQSTIRSIEDGGFSTIEMVDMSIKEVPEGKL
partner: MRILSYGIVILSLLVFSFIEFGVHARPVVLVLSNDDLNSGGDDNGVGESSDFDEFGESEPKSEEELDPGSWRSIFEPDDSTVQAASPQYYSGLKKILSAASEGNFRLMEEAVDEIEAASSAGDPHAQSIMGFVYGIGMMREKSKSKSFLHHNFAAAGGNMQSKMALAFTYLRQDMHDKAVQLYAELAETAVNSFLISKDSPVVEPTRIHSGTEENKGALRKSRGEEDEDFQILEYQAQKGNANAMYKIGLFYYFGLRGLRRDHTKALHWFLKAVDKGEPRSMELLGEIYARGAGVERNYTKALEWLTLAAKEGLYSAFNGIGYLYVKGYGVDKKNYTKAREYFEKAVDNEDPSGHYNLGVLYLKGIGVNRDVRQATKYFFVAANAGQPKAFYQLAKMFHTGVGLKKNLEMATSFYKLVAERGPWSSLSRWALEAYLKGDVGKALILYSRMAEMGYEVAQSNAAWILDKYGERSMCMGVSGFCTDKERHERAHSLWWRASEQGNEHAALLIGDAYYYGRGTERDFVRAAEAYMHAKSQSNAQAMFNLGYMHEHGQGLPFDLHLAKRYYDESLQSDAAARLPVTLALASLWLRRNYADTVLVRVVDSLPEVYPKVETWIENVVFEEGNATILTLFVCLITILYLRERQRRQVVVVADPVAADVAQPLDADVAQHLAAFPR

Variants of: B1
Conditions: with hrd3a_arath HRD3A

effect of a mutation on the interaction | Variant
increasing interaction strength | C69Y
increasing interaction strength | S662F
